{
  "source": "paper PMC12442378",
  "about": "“SmsB-SmsC machinery in Thermococcus kodakarensis functions as an archaeal scaffold mediating Fe-S cluster assembly” (Applied and Environmental Microbiology, 2025)",
  "binders": {"B1": {"name": "Tk-SmsB (TK0730 protein) with a 6x His tag at its N-terminus (natural protein, Thermococcus kodakarensis, UniProt Q5JG67 1-446, looked up)", "chain": "MTETITMADAKAIIENQIEELARRNKEPEWMTKIRYKALEAFERAPHKDPVISEEQLLHFIAKPEVKGLPDHIESLDDLPPEMKALLDRLGISEVEQKYIAGLAVQTDTGVIYNQFLQDWAKKGLIVLPTEEAVRKYPDIVKQHFLKLFRADESKLTAYHTAVWNGGIFLYVKEGLKVPFPLHLFFLIQESALAQAPHIIIIAERNTEFHLIEGCTAPILLKHSLHLDMTEAYFHEGAKAQLTVLQNWPEYVHTRPMTRAKVGRGARFINTTVTLGSGKSNIGDPHYWVEEGGHVELNGIILGQKDFYVDLGGRMFLQGPGASGINASKAVIMDESTVVTRGIIEADAPKTKGHISCDALLMSDKAVMETYPGLISRVDDAELSHEAAIGKIREEELFYLMSRGLDEEKATQLIVKGFLDPMLKDIPMEFLVEIRKIIELAVSGGM", "notes": "SmsB (SufB homolog) of Thermococcus kodakarensis, locus TK0730; coding region amplified from genomic DNA of strain KU216; theoretical monomer mass 50.8 kDa including the His tag; Homodimer by gel filtration.); not shown: His6, N-terminal, kept"}},
  "key": {"[1]": {"biological_target": "the molecule itself", "assay": "SEC; gel filtration of Tk-CSD alone and of its mixtures with Tk-SmsB, Tk-SmsC or both, 30 uM of each protein; fractions analysed by SDS-PAGE"}, "[2]": {"biological_target": "B1", "assay": "cell-based or functional assay"}, "[3]": {"biological_target": "B1", "assay": "SEC; Superdex 200 Increase 10/300 GL; 50 mM HEPES pH 7.5, 0.15 M NaCl; Tk-SmsB 40 uM alone, Tk-SmsC 72 uM alone, or mixture of 40 uM each; peak fraction analysed by SDS-PAGE and band densitometry", "conditions": "both partners purified"}, "[4]": {"biological_target": "the molecule itself", "assay": "SEC; Superdex 200 Increase 10/300 GL; 50 mM HEPES pH 7.5, 0.15 M NaCl; Tk-SmsB 40 uM alone, Tk-SmsC 72 uM alone, or mixture of 40 uM each; peak fraction analysed by SDS-PAGE and band densitometry"}},
  "data": [
    {"binder": "Tk-CSD (cysteine desulfurase of T. kodakarensis, TK1990 protein) (enzyme, Thermococcus kodakarensis, UniProt Q5JIJ0 1-399, looked up, cysteine desulfurase (SufS homolog) of Thermococcus kodakarensis, locus TK1990; coding region amplified from genomic DNA of strain KU216; theoretical monomer mass 44.4 kDa; Cloned NheI-EcoRI into pET-21a(+); Homodimer by gel filtration; source: E. coli BL21-CodonPlus(DE3)-RIL (pET1990), purified (heat treatment, anion exchange, gel filtration)) MKIPDDIRKDIPLTSEVIYFDNTATSLTPKPVIEAMDEYYLKYRANVHRGVHRLSQIATHKYEESRKVVADFINAKFEEIVFTKNTSESLNLVALGLEHIFEKGDKIVTTPYEHHSDLLPWQRLAKKKGLRLEFIEGDLEGNLDLADAEKKIKGAKLVAVQHVSNALGVIHEVEELGKMAKEEGAIFVVDAAQSAGHMEVDVKKLYADFLGFSGHKGPMGPTGIGVLYINSEFFDVFEPPLIGGGTIEDVDLDSYKLAEPPERFEAGTPNIGGAIGLAAGIRYIERIGIEKIEKQEHKLVKRTTEGLDELEVPWYGPRNLKKHAGVVSFNVPPLHPHDVAAILDEHNIMVRSGHHCALPAMKKLGVEGTVRASFHVYNSVEEVETFLSVMENLIRGLRG", "values": [
      {"measurement": "stoichiometry N", "setting": "[1]", "value": 2}
    ]},
    {"binder": "Tk-SmsC (TK0731 protein), recombinant (enzyme, Thermococcus kodakarensis, UniProt Q5JG66 1-246, looked up, SmsC (SufC homolog, ABC-type ATPase) of Thermococcus kodakarensis, locus TK0731; coding region amplified from genomic DNA of strain KU216; theoretical mass 27.5 kDa; Cloned NdeI-BamHI into pET-21a(+); Monomer by gel filtration; source: E. coli BL21-CodonPlus(DE3)-RIL (pET0731), purified (heat treatment, anion exchange, gel filtration)) MLKVENLHVSVEDKEILRGVDLEVNPGEFHVIMGPNGSGKSTLALTIAGHPKYRVTDGKILFEGEDITELGPDERAKRGILLAFQVPPEVEGVKVIEFLQQVLVELKGMDPAEAYDLVVEKAKELWFKEEDLHRYVNVGFSGGERKRLELLQALLIEPKLLILDEPDSGVDVDSLSIISRKIEELHQRGTAILLITHYGRILGHLDREKLTVHVMKDGRIVKTGSGELVDQIDREGFARIFEEVGA", "values": [
      {"measurement": "kcat/Km of ATP hydrolysis, Tk-SmsB2C2 (Tk-SmsC alone 4.4 × 10^2)", "setting": "[2]", "value": 4600, "unit": "M⁻¹ s⁻¹"},
      {"measurement": "density ratio of the Tk-SmsB band to the Tk-SmsC band (SDS-PAGE of peak Pm)", "setting": "[3]", "value": 1.13},
      {"measurement": "stoichiometry N", "setting": "[3]", "value": "1 Tk-SmsC per Tk-SmsB (printed as 2:2)"}
    ]},
    {"binder": "B1", "values": [
      {"measurement": "stoichiometry N", "setting": "[4]", "value": 2}
    ]}
  ]
}
